Starred links: 1 amine or outer side, 2 acyl side, 3 side chain; linkers in the order of their positions; H or OH if unused. Non-standard residues stand in square brackets, D forms with d. Groups on a side chain read outwards from the residue. No end group written: not given here. *: point of attachment. C20 diacid = O=C(O)CCCCCCCCCCCCCCCCCCC(=O)*; γGlu = O=C(O)[C@H](CCC(=O)[*:2])N[*:1]; 4Pal = N[C@@H](Cc1ccncc1)C(=O)O; αMeL = CC(C)C[C@](C)(N)C(=O)O; Orn = NCCC[C@H](N)C(=O)O; AEEA = NCCOCCOCC(=O)O; Aib = CC(C)(N)C(=O)O
T1: human glucose-dependent insulinotropic peptide receptor (human, UniProt P48546 22-466)
T1 sequence (looked up): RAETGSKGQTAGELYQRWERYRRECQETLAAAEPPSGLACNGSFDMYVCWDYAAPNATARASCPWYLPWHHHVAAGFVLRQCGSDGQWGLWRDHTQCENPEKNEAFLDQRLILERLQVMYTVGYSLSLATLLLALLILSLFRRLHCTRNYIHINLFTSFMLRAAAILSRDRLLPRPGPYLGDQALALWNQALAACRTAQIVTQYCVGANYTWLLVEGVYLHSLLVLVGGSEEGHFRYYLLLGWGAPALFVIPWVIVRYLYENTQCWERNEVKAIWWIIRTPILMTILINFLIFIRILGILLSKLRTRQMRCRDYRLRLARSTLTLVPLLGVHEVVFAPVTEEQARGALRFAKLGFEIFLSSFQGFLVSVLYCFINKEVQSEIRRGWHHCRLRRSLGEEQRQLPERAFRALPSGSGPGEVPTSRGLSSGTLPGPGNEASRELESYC


Key:
Test in all cases: cell-based or functional assay
human GLP-1 receptor = human GLP-1 receptor (human, UniProt P43220 24-463)
[1] = molecular target: T1, human glucose-dependent insulinotropic …
human glucagon receptor = human glucagon receptor (human, UniProt P47871 26-477)
Chain of human glucagon receptor (P47871 26-477): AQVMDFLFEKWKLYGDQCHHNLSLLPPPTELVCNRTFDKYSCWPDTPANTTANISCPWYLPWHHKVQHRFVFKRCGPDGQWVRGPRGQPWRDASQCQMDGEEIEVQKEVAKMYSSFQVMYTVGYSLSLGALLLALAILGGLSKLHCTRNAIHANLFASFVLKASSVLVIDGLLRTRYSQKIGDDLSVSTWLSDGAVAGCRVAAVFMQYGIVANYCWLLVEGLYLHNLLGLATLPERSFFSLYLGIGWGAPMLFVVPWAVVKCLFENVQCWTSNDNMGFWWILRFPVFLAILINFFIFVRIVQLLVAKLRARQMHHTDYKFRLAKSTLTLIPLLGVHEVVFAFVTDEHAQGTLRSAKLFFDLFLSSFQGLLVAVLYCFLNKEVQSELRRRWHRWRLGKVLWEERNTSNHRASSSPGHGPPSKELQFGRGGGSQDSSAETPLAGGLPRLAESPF

| Binder | hGLP1R cAMP Rel EC50 (human GLP-1 receptor) [µM] | hGIPR cAMP Rel EC50 [1] [nM] | hGcgR cAMP Rel EC50 (human glucagon receptor) [µM] |
| --- | --- | --- | --- |
| Y[Aib]EGTFISDYSI[αMeL]LDKK([AEEA-AEEA-γGlu-C20 diacid])HQ[Aib]DFVE[4Pal]LLAQGPSSGAPPPS-NH2 (N-terminus assumed; SMILES CC[C@H](C)[C@H](NC(=O)[C@H](Cc1ccccc1)NC(=O)[C@@H](NC(=O)CNC(=O)[C@H](CCC(=O)O)NC(=O)C(C)(C)NC(=O)[C@@H](N)Cc1ccc(O)cc1)[C@@H](C)O)C(=O)N[C@@H](CO)C(=O)N[C@@H](CC(=O)O)C(=O)N[C@@H](Cc1ccc(O)cc1)C(=O)N[C@@H](CO)C(=O)N[C@H](C(=O)N[C@@](C)(CC(C)C)C(=O)N[C@@H](CC(C)C)C(=O)N[C@@H](CC(=O)O)C(=O)N[C@@H](CCCCN)C(=O)N[C@@H](CCCCNC(=O)COCCOCCNC(=O)COCCOCCNC(=O)CC[C@H](NC(=O)CCCCCCCCCCCCCCCCCCC(=O)O)C(=O)O)C(=O)N[C@@H](Cc1c[nH]cn1)C(=O)N[C@@H](CCC(N)=O)C(=O)NC(C)(C)C(=O)N[C@@H](CC(=O)O)C(=O)N[C@@H](Cc1ccccc1)C(=O)N[C@H](C(=O)N[C@@H](CCC(=O)O)C(=O)N[C@@H](Cc1ccncc1)C(=O)N[C@@H](CC(C)C)C(=O)N[C@@H](CC(C)C)C(=O)N[C@@H](C)C(=O)N[C@@H](CCC(N)=O)C(=O)NCC(=O)N1CCC[C@H]1C(=O)N[C@@H](CO)C(=O)N[C@@H](CO)C(=O)NCC(=O)N[C@@H](C)C(=O)N1CCC[C@H]1C(=O)N1CCC[C@H]1C(=O)N1CCC[C@H]1C(=O)N[C@@H](CO)C(N)=O)C(C)C)[C@@H](C)CC) [Example 79] | > 5 | 0.0316 | > 5 |
| Y[Aib]EGTFISDYSI[αMeL]LD[Orn]K([AEEA-AEEA-γGlu-C20 diacid])HQ[Aib]DFVE[4Pal]LLETGPSSGAPPPS-NH2 (N-terminus assumed; SMILES CC[C@H](C)[C@H](NC(=O)[C@H](Cc1ccccc1)NC(=O)[C@@H](NC(=O)CNC(=O)[C@H](CCC(=O)O)NC(=O)C(C)(C)NC(=O)[C@@H](N)Cc1ccc(O)cc1)[C@@H](C)O)C(=O)N[C@@H](CO)C(=O)N[C@@H](CC(=O)O)C(=O)N[C@@H](Cc1ccc(O)cc1)C(=O)N[C@@H](CO)C(=O)N[C@H](C(=O)N[C@@](C)(CC(C)C)C(=O)N[C@@H](CC(C)C)C(=O)N[C@@H](CC(=O)O)C(=O)N[C@@H](CCCN)C(=O)N[C@@H](CCCCNC(=O)COCCOCCNC(=O)COCCOCCNC(=O)CC[C@H](NC(=O)CCCCCCCCCCCCCCCCCCC(=O)O)C(=O)O)C(=O)N[C@@H](Cc1c[nH]cn1)C(=O)N[C@@H](CCC(N)=O)C(=O)NC(C)(C)C(=O)N[C@@H](CC(=O)O)C(=O)N[C@@H](Cc1ccccc1)C(=O)N[C@H](C(=O)N[C@@H](CCC(=O)O)C(=O)N[C@@H](Cc1ccncc1)C(=O)N[C@@H](CC(C)C)C(=O)N[C@@H](CC(C)C)C(=O)N[C@@H](CCC(=O)O)C(=O)N[C@H](C(=O)NCC(=O)N1CCC[C@H]1C(=O)N[C@@H](CO)C(=O)N[C@@H](CO)C(=O)NCC(=O)N[C@@H](C)C(=O)N1CCC[C@H]1C(=O)N1CCC[C@H]1C(=O)N1CCC[C@H]1C(=O)N[C@@H](CO)C(N)=O)[C@@H](C)O)C(C)C)[C@@H](C)CC) [Example 80] | > 5 | 0.0777 | > 5 |
| Y[Aib]EGTFISDYSI[αMeL]LD[Orn]K([AEEA-AEEA-γGlu-C20 diacid])HQ[Aib]DFVE[4Pal]LLEQGPSSGAPPPS-NH2 (N-terminus assumed; SMILES CC[C@H](C)[C@H](NC(=O)[C@H](Cc1ccccc1)NC(=O)[C@@H](NC(=O)CNC(=O)[C@H](CCC(=O)O)NC(=O)C(C)(C)NC(=O)[C@@H](N)Cc1ccc(O)cc1)[C@@H](C)O)C(=O)N[C@@H](CO)C(=O)N[C@@H](CC(=O)O)C(=O)N[C@@H](Cc1ccc(O)cc1)C(=O)N[C@@H](CO)C(=O)N[C@H](C(=O)N[C@@](C)(CC(C)C)C(=O)N[C@@H](CC(C)C)C(=O)N[C@@H](CC(=O)O)C(=O)N[C@@H](CCCN)C(=O)N[C@@H](CCCCNC(=O)COCCOCCNC(=O)COCCOCCNC(=O)CC[C@H](NC(=O)CCCCCCCCCCCCCCCCCCC(=O)O)C(=O)O)C(=O)N[C@@H](Cc1c[nH]cn1)C(=O)N[C@@H](CCC(N)=O)C(=O)NC(C)(C)C(=O)N[C@@H](CC(=O)O)C(=O)N[C@@H](Cc1ccccc1)C(=O)N[C@H](C(=O)N[C@@H](CCC(=O)O)C(=O)N[C@@H](Cc1ccncc1)C(=O)N[C@@H](CC(C)C)C(=O)N[C@@H](CC(C)C)C(=O)N[C@@H](CCC(=O)O)C(=O)N[C@@H](CCC(N)=O)C(=O)NCC(=O)N1CCC[C@H]1C(=O)N[C@@H](CO)C(=O)N[C@@H](CO)C(=O)NCC(=O)N[C@@H](C)C(=O)N1CCC[C@H]1C(=O)N1CCC[C@H]1C(=O)N1CCC[C@H]1C(=O)N[C@@H](CO)C(N)=O)C(C)C)[C@@H](C)CC) [Example 81] | > 5 | 0.0282 | > 5 |
| Y[Aib]EGTFISDYSI[αMeL]LD[Orn]K([AEEA-AEEA-γGlu-C20 diacid])HQ[Aib]DFVE[4Pal]LLEGGPSSGAPPPS-NH2 (N-terminus assumed; SMILES CC[C@H](C)[C@H](NC(=O)[C@H](Cc1ccccc1)NC(=O)[C@@H](NC(=O)CNC(=O)[C@H](CCC(=O)O)NC(=O)C(C)(C)NC(=O)[C@@H](N)Cc1ccc(O)cc1)[C@@H](C)O)C(=O)N[C@@H](CO)C(=O)N[C@@H](CC(=O)O)C(=O)N[C@@H](Cc1ccc(O)cc1)C(=O)N[C@@H](CO)C(=O)N[C@H](C(=O)N[C@@](C)(CC(C)C)C(=O)N[C@@H](CC(C)C)C(=O)N[C@@H](CC(=O)O)C(=O)N[C@@H](CCCN)C(=O)N[C@@H](CCCCNC(=O)COCCOCCNC(=O)COCCOCCNC(=O)CC[C@H](NC(=O)CCCCCCCCCCCCCCCCCCC(=O)O)C(=O)O)C(=O)N[C@@H](Cc1c[nH]cn1)C(=O)N[C@@H](CCC(N)=O)C(=O)NC(C)(C)C(=O)N[C@@H](CC(=O)O)C(=O)N[C@@H](Cc1ccccc1)C(=O)N[C@H](C(=O)N[C@@H](CCC(=O)O)C(=O)N[C@@H](Cc1ccncc1)C(=O)N[C@@H](CC(C)C)C(=O)N[C@@H](CC(C)C)C(=O)N[C@@H](CCC(=O)O)C(=O)NCC(=O)NCC(=O)N1CCC[C@H]1C(=O)N[C@@H](CO)C(=O)N[C@@H](CO)C(=O)NCC(=O)N[C@@H](C)C(=O)N1CCC[C@H]1C(=O)N1CCC[C@H]1C(=O)N1CCC[C@H]1C(=O)N[C@@H](CO)C(N)=O)C(C)C)[C@@H](C)CC) [Example 82] | > 5 | 0.0391 | 3.79 |
